Assay results published in US6730301.

Assays:
Experiment in all cases: cell-based or functional assay
[1] = target: MCP-1RB (monocyte chemoattractant protein-1 receptor B) (human) (UniProt P41597)
[2] = target: MIP-1α/RANTES receptor (Homo sapiens (Human)) (UniProt P32246)
[3] = target: T1, MIP-1α/RANTES receptor (Homo sapiens (Human), UniProt P32246 1-355)
T1 sequence: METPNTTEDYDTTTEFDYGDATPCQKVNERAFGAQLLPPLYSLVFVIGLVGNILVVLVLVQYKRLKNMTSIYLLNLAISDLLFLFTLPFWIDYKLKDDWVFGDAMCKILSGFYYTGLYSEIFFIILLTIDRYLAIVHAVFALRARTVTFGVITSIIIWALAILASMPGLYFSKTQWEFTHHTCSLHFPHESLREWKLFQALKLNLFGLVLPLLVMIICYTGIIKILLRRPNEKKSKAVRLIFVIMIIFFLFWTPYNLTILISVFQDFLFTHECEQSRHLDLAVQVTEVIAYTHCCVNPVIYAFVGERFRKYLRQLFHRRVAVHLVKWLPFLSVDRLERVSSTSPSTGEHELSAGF

Chain of MCP-1RB (monocyte chemoattractant protein-1 receptor B) (human) (P41597 other isoform, or with tags, fused parts or gaps): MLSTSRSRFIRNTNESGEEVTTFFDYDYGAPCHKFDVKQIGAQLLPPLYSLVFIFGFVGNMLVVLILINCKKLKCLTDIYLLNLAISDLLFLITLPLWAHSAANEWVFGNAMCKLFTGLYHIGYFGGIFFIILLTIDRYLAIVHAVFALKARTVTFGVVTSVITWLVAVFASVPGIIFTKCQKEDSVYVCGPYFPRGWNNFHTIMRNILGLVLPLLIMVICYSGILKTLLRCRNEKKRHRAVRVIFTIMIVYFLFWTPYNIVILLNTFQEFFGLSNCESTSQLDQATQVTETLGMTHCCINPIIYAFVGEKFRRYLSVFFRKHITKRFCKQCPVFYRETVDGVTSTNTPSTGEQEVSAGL

Molecule | IC50, Inhibition of Adenylyl Cyclase [1] [nM] | IC50, Inhibition of Adenylyl Cyclase [2] [nM] | IC50, Inhibition of Adenylyl Cyclase [3] [nM] | Selectivity (against MCP-1RB), inhibition of adenylyl cyclase [3] [fold]
IL-8 (interleukin-8) (from UniProt P10145 28-99) (ligand) | > 1000 |  |  | 
Gro-α (from UniProt P09341 35-107) (ligand) | > 1000 | > 1000 |  | 
RANTES (ligand, UniProt P13501 24-91, looked up) SPYSSDTTPCCFAYIARPLPRAHIKEYFYTSGKCSNPAVVFVTRKNRQVCANPEKKWVREYINSLEMS | > 1000 |  | 0.14 | > 7000
MIP-1α (ligand, UniProt P10147 27-92, looked up) ADTPTACCFSYTSRQIPQNFIADYFETSSQCSKPGVIFLTKRSRQVCADPSEEWVQKYVSDLELSA | > 1000 |  | 0.11 | > 9000
MIP-1β (ligand, UniProt P13236 24-92, looked up) APMGSDPPTACCFSYTARKLPRNFVVDYYETSSLCSQPAVVFQTKRSKQVCADPSESWVQEYVYDLELN | > 1000 |  | 10 | > 100
